Measured values from publication PMC10287910.

Columns and labels:
[1] = molecular target: ParA2 ATPase (wild type), Vibrio cholerae chromosome 2 (Vibrio cholerae); experiment: SEC-MALS; 40 uM ParA2 alone or pre-incubated with ADP or ATP; Superdex 200 10/300 GL; 50 mM Tris-HCl pH 7.5, 100 mM NaCl, 5.0 mM MgCl2, 0.1 mM EDTA, 1.0 mM DTT, 1.0 mM NaN3; monomer to dimer
[2] = molecular target: ParA2 ATPase (wild type), Vibrio cholerae chromosome 2 (Vibrio cholerae)
[3] = test system: ParA2 (Vibrio cholerae); experiment: EMSA
[4] = test system: ParA2 K124R (Vibrio cholerae); experiment: EMSA
[5] = test system: ParA2 K124E (Vibrio cholerae); experiment: EMSA
[6] = test system: ParA2-GFP (Vibrio cholerae); experiment: EMSA
[7] = test system: ParA2 K124Q (Vibrio cholerae); experiment: EMSA

ParA2 ATPase (wild type), Vibrio cholerae chromosome 2 (enzyme)
stoichiometry N [1]: 2

ParB2, Vibrio cholerae chromosome 2 (natural protein)
pre-steady state ATP hydrolysis rate of ParA2 (1.5 uM), stimulation by ParB2 at equimolar concentration [2]: 3 fold | pre-steady state ATP hydrolysis rate of ParA2 (1.5 uM), stimulation in the presence of both DNA and ParB2 [2]: 8 fold

CGAGGTCGACGGTATCGATAAGCTTGATATCGAATTCCTGCAGCCCGGGGGATCCACTAGTTCTAGAGC (double strand) [Cy3-69 bp nsDNA]
Kd [3]: 1000 nM | Kd [4]: 47.1 nM | Kd [5]: 452 nM | Kd [6]: 40 nM | Kd [7]: 138 nM
